B1: CO-17: alkene cleavage oxygenase, Coniochaeta pulveracea, SEQ ID NO: 82 (protein, listed as Coniochaeta pulveracea)
chain: MAHIFDLAPEVSLPDEPIYKDGKLHRPNHVQFPQTPVFASMNKPSRFEGTILSLEHTGIIPPEINGTFFRVQPDHRFPPMFEDDIHFNGDGSVTAIRIFDGKVDFRQRYVHTERYKAETKARRSLFGRYRNPWTDNESVKGVIRTASNTNVFFWRGMLLATKEDGPPYAMDPVTLETYGRYDFEGQILSPTFTAHPKFDPRTGEMVCFAYETGGDGADCSREVMVWTLDKDGKKVSERWFEAPFAGMIHDCGLSENWLVLPLTPIKMDLERMKRGGNKFAWDPKEDQVYGLVPRRGDGEVKWFRGENAFHGHVAGCYENAQGHVVIDLTVADGNVFFWFPPDGEEQGQFAKRNKLSSPTHRWILDPSLPNNARITPALVWPTNGEFSRIDDRWTTRKYKHFWLAKVDPSRPYDFAKCGPPAGGLFNCLGHYTWDLDNELATGQEDVYFAGPTCTFQEPTFIPKGDKEGEGWLIALVNHLDVLRNDVVILDAQNLAKGPVCTIHLPLKLKLGLHGNWVDWRDIEDWTKRRQEDGEVGPVQVATEMLPWQKAFWEKEKEKNGNGVEGPNINGTNGANGTNGVNGSSH
B2: CO-16: alkene cleavage oxygenase, Valsa mali, SEQ ID NO: 76 (protein, listed as Valsa mali)
chain: MAHIFDIAPAVKGYASGRLAKPGDATTFPDTDVFRGINKPSRFEGDIFDLEVTGTIPKDIDGTFYRVQPDHRFPPLFEDDIHFNGDGSVTAIRISNGHADFKQRYVQTDRYKAETAARRSLFGRYRNPWTDNESVKGVIRTASNTNVTFWRGILLASKEDGPPFAMDPVTLETLGRYDFEGQIKAPTFTAHPKFDPDTGEMLCFAYEAGGDGNDGSCDVVVWTVDADGKKTEECWYKAPFAGMIHDMAVSKNFVVLPLTPLKVNMDRMKKGGEKFAWDPKEDQYYGLVPRRNAKPEDIRWFRADNGMAPFLKTLSTHCADTPASSAFQGHIAGCYENEEGHVVVDLTVADGNVFFWWPPDDGTAIPPGKKPNQLSSTTTRWILDPKAETNTRITPAYVWPTNGEFSRIDDRFVTKKYKHFWQAKVDPTRPYDFAKCGPPAGGLFNCLGHYTWSPDNPLAKGEEDVFFFGPTATVQEPSFIPKDEGGEGDGYLIALVNHLDVLRNDIAVFDAQHLAGGPLAVLHLPLKLKLGLHGNFVDHRDIEAWQRRRDAKGDVGPVKVATEPLPWQKSFWDRRQDGQNGGLNGTH
B3: CO-20: alkene cleavage oxygenase, Pseudomonas frederiksbergensis, SEQ ID NO: 120 (protein, listed as Pseudomonas frederiksbergensis)
chain: MTHPFPQTPEFSGALYAPSRVEAEVFDLEVEGTLPDSIRGAFYQVAPDPQYPPMLGNDIFFNGDGMVSAFNFADGKVSMRRRYVKTDRLMAQRREGRSLNGVYRNVFTNDPLAAKNNTTANTSVVAHNGVLLALKEDALPWAMDLETLETLGEWSFDGQIESATFTAHPKLDPVTGNLLAFSYEAKGDGTPDLAYFELSPDGKLLHQIWFQAPYAAMVHDFAVTEHYVVFPLIPLTVDVERMKNGGQHFQWQPDLPQLFAVVPRNGHAEDVRWFKGPKDGFQGHTLNAFDEDDKVYVDMPVTGGNIFYFFPQADGYVPPPETLAASLMRWTFDLTSTQDDIQPQPLTDYPCEFPRCDDRYIGRKYEHGFVLAFDPERPYNPANGPIPFQFFNLLARVNLKTGATDAWFPGDSGCFQEPIFIPRAPDAQEADGYVVALLNLIAEGRSELVVLDSRDMASGPIARIKVPFRLRMSLHGCWVPSKK
B4: CO-15: alkene cleavage oxygenase, Herbaspirillum sp., SEQ ID NO: 74 (protein, listed as Herbaspirillum sp.)
chain: MNIRFSNNDFKSFEAPMRAEIELTGLEVVQGKVPKNLEGGFFRLIGDRKWPAFVDNDVFMLNEDGMASCFYFKDGKVDFRMRYVRTPRFVAEEKAGRALFGHYRNPFSDDPSVAGLSRGTANVTMLMHGGKLLALKEDSPAIELNPFTLETIGEYDWNGKVTAKAITAHPKIDAKTGELVFFGYCAAGPATRDIAYYEADSEGNVTHETWFHAPYTCMVHDIMVTQNYVVFPITPLRHELEWIKRSEPAFKWDPHESVYLGVLPRKGRGDQIRWFKGPNQCHGHTVGAYDDGRYIYADNTFSKRSFFHFFPNVDGSQFKPTDAMPYMKRVVIDMERSDNSFVEQPLFEYPCELPRIDTRFETLPYSFATMNLLDVPGQERVGRGFQWIATMDVNGAKPSKILYAGDNCSIGEPQFVPAHDNAAEGDGYIMTVVGRHEQMRSELLILDASDINAPPVATVALPFRLRSTGHGYWYGGRQLRGETNFPGAW
B5: CO-13: alkene cleavage oxygenase, Actinobacteria bacterium, SEQ ID NO: 64 (protein, listed as Actinobacteria bacterium)
chain: MVRFPPPKDPFDAPMRVEADIRGVQVTQGEVPEHLDGIYYRCVSDRQWPSYVENDLELFNSDGMIISFRFHKGRVDFKSRYVRTPRFVAEEKAGRALFGAYRNPFDDDPSVAGISRGLANTNVFYHGGKLYASKEDSPPILLDPITLETIGEYDFEGALTSRTSTAHPKFDPITGEMVFFGYEAKGPGTPDIAYYEADASGRIIHEAWLEAPYTSMVHDWAVTQNFVVFPIIPLRSDIEWIKQGRSYFQWDPYEDVYLGVMPRKGTAKDLRWYRGSNRFASHIMGAYDDGRYIYIDTPVGQTNYFPWFPDITGAPYDPERSKGYLSRWTIDTQGESDGFTETRLCDLPGEFPRMDDRQETLPYHWGIMLLTDGPGRVAPGGGFRWLMGIDLKTGRKQIYYPGDNCTLGEAIFVPAAPDAPPGVGYVFTVVARRAEMRSDLVILDAQHIDGEPVCTLSLPMRIRMGVHGNWVSAEELARRTA

Test: Bioconversion of eugenol to vanillin: one-pot concurrent cascade EUGO + alkene cleavage oxygenase (5 mM scale)
Format: biochemical
Settings: Table 8b, EUGO FD-CFE 1 mg/mL, CO-0X FD-CFE 1 mg/mL, catalase 10 mg/mL, eugenol 5 mM
Method: Stock solutions of eugenol (100 mM) were prepared in ethanol or DMSO and stored at −20° C. Unless otherwise stated, the reaction mixtures (0.5 mL) were set up in 1.5 mL glass vials as follows: freeze-dried cell free extract of IECO/CO-XX (3 mg) and EUGO (0.5 mg) were dissolved in the reaction buffer (50 mM glycine-NaOH pH 9.0) containing sodium ascorbate (1 mM), FeSO4 (1 mM) and bovine liver catalase (5 mg, Sigma Aldrich C40). The reaction was initiated by the addition of 0.025 mL eugenol stock (final concentration 5 mM), then incubated at 30° C. and 120 rpm overnight (rotary shaker). The final content of cosolvent was 5% v/v. To improve oxygenation, the vials were placed horizontally. At certain time points, samples (0.2 mL) were quenched with methanol (0.4 mL) and the mixture was centrifuged at 20238 g for 5-10 mins. Finally, the supernatant was analysed by HPLC.
EUGO (0.5 mg CFE), CO-25 (3 mg CFE) and catalase (5 mg, Sigma product #C40) were dissolved in 50 mM Glycine-NaOH pH 9.0 or Tris-HCl pH 8.0 together with FeSO4 (1 mM) and sodium ascorbate (1 mM). Note that the buffer content of the freeze-dried biocatalyst prep was not considered for the assembling of the reaction. The reaction was started by the addition of 5 mM eugenol from a 20× stock in ethanol. The reactions—performed in glass vials—were then incubated at 30° C. and 120 rpm (25 mm shaker). Finally, samples of the reaction mixture were diluted with MeOH and analyzed by HPLC at 280 and 340 nm.

Molecule | Product distribution after 24 hours 2a (%) (pH 8.0) | Product distribution after 24 hours 3a (%) (pH 8.0) | Product distribution after 24 hours 5a (%) (pH 8.0) | Product distribution after 24 hours 2a (%) (pH 9.0) | Product distribution after 24 hours 3a (%) (pH 9.0) | Product distribution after 24 hours 5a (%) (pH 9.0)
B1 | 73.1% | 7.8% | 19.1% | 65.8% | 11.8% | 22.5%
B2 | 76.0% | 4.3% | 19.7% | 71.0% | 5.5% | 23.5%
B3 | 59.4% | 23.6% | 17.0% | 57.8% | 22.0% | 20.2%
B4 | 68.3% | 13.5% | 18.2% | 61.2% | 16.5% | 22.2%
B5 | 56.4% | 26.4% | 17.2% | 45.3% | 32.4% | 22.3%

— patent US20260176659A1, “IMPROVED METHOD FOR THE PRODUCTION OF NATURAL VANILLIN” (BASE SE, priority 2022, published 2026)
